Laboratory results published in patent publication US5973118.

Experiments:
[1] = target: recombinant plasminogen activator rPA (recombinant tPA derivative comprising the kringle 2 and protease domains) (Homo sapiens (Human)) (UniProt P00750); experiment: affinity column: inhibitor coupled to CNBr-Sepharose, loaded with 2 MU r-PA/ml gel, eluted rPA by S2288 amidolytic activity, run 2
[2] = target: recombinant plasminogen activator rPA (recombinant tPA derivative comprising the kringle 2 and protease domains) (Homo sapiens (Human)) (UniProt P00750); experiment: affinity column: inhibitor coupled to CNBr-Sepharose, loaded with 2 MU r-PA/ml gel, eluted rPA by S2288 amidolytic activity, run 3
[3] = target: trypsin
[4] = target: recombinant plasminogen activator rPA (recombinant tPA derivative comprising the kringle 2 and protease domains) (Homo sapiens (Human)) (UniProt P00750); experiment: affinity column: inhibitor coupled to CNBr-Sepharose, loaded with 2 MU r-PA/ml gel, eluted rPA by S2288 amidolytic activity, run 4
[5] = target: recombinant plasminogen activator rPA (recombinant tPA derivative comprising the kringle 2 and protease domains) (Homo sapiens (Human)) (UniProt P00750); experiment: affinity column: inhibitor coupled to CNBr-Sepharose, loaded with 2 MU r-PA/ml gel, eluted rPA by S2288 amidolytic activity, run 5
[6] = target: recombinant plasminogen activator rPA (recombinant tPA derivative comprising the kringle 2 and protease domains) (Homo sapiens (Human)) (UniProt P00750); experiment: affinity column: inhibitor coupled to CNBr-Sepharose, loaded with 2 MU r-PA/ml gel, eluted rPA by S2288 amidolytic activity, run 1
[7] = target: recombinant plasminogen activator rPA (recombinant tPA derivative comprising the kringle 2 and protease domains) (Homo sapiens (Human)) (UniProt P00750); experiment: affinity column: inhibitor coupled to CNBr-Sepharose, eluted rPA; reference seed-ETI-Sepharose

Row | Binding capacity MU/ml [1] | Binding capacity MU/ml [2] | specific activity (U/mg), inhibition of trypsin with BAPA as substrate [3] | Binding capacity MU/ml [4] | Binding capacity MU/ml [5] | Binding capacity MU/ml [6] | fold higher binding capacity than seed-ETI-Sepharose [7] | Substance
1 | 0.95 MU/ml | 1.08 MU/ml | 0.88 U/mg | 1.01 MU/ml | 0.98 MU/ml | 1.04 MU/ml | – | ETI isolated from the seeds of Erythrina caffra [ETI (seeds)] (from UniProt P09943)
2 | 1.35 MU/ml | 1.53 MU/ml | 1.5 U/mg | 1.48 MU/ml | 1.49 MU/ml | 1.28 MU/ml | 1.5 fold | SerETI (recombinant ETI polypeptide in which the N-terminal Val is replaced by Ser)
3 | – | – | 1.07 U/mg | – | – | – | – | recombinant, non-modified ETI (recETI) (from UniProt P09943)
